The values below come from the DeepSol protein solubility set.

The nature of this series: soluble on expression in E. coli; label from the status in PepcDB or PDB records.
With “MGSDKIHHHHHHLPSARLSPRLSSPAGCRQTEWSQMPEAFIELRAITKRFSGVCALDALSLTINKGEIHCLAGENGSGKSTVIKVMAGVYQPDGGEILINGAPVRALTPIEAVRRNIQVIYQDFSLFGNLTVAENLALCGELQQKRKLADWKRIRAIGRQALDRLGVDIDLEVDVERLPTSSRQIVAIARALMSDAKLLIMDEPTTALTGREVDALFRIVKDIQAQGIAVLFVSHKMREMLEISERLTVIRNGRTVIDGPTSAFDESAVTRHMTGLDILSEGYAWAGSPEAVPRLEVRGLSLPGAFEDLSLAIRPGEIVGLSGLLGSGRTEFALSLFGMMPPAAGQVLVDGAQIAPRSVQDAIAEGITYVPEDRLTEGLFLTQSIDRNILATSYERLAPRGVIDRAKAAMQSAGMIKAMQIATPTGEKPVGQLSGGNAQRVVLARWLLTDAKVLILNGPTVGVDVGSKAEIHRKIRELASAHGLAVLMISDDVLELVQNTNRIVLMHRGRFVDDLPTATVSEQSINDLLKSFT”, the “soluble on expression in E. coli” value was “not soluble”.

Take “GADNNKWKPLFGKNLENANYNPEVWSETDGVLGAVKDESIWTKDEYENFELDLDFKTDVGTNSGVVVYCTDTKDWIPNSVEIQIADDHCEKWGNGKPYEKCGAIYGHLGAVQDKVVKKPGEWNHMRIKCAGQHIMVILNGKKVTEMDMSKWTSGTKNPDGSDIPSWLPKPFAELPTKGFIGLQGKHGDSLIWFRNIKIRSL”: the “soluble on expression in E. coli” value is “soluble”.

For “SPNATPRRPLQELRRAELVEIIVETEAQTGVSGINVAGGGKEGIFVRELREDSPAARSLSLQEGDQLLSARVFFENFKYEDALRLLQCAEPYKVSFCLKRTVPTGDLALRPGTVSGYEIKGPRAKVAKLNIQSLSPVKKKKMVPGALGVPADLAPVDVEFSFPKFSRLRRGLKAEAVKGPVPAAPARRRLQLPRLRVREVAEEAQAARLAAAAPPPRKAKVEAEVAAGARFTAPQVELVGPRLPGAEVGVPQVSAPKAAPSAEAAGGFALHLPTLGLGAPAPPAVEAPAVGIQVPQVELPALPSLPTLPTLPCLETREGAVSVVVPTLDVAAPTVGVDLALPGAEVEARGEAPEVALKMPRLSFPRFGARAKEVAEAKVAKVSPEARVKGPRLRMPTFGLSLLEPRPAAPEVVESKLKLPTIKMPSLGIGVSGPEVKVPKGPEVKLPKAPEVKLPKVPEAALPEVRLPEVELPKVSEMKLPKVPEMAVPEVRLPEVELPKVSEMKLPKVPEMAVPEVRLPEVQLLKVSEMKLPKVPEMAVPEVRLPEVQLPKVSEMKLPEVSEVAVPEVRLPEVQLPKVPEMKVPEMKLPKVPEMKLPEMKLPEVQLPKVPEMAVPDVHLPEVQLPKVPEMKLPEMKLPEVKLPKVPEMAVPDVHLPEVQLPKVPEMKLPKMPEMAVPEVRLPEVQLPKVSEMKLPKVPEMAVPDVHLPEVQLPKVCEMKVPDMKLPEIKLPKVPEMAVPDVHLPEVQLPKVSEIRLPEMQVPKVPDVHLPKAPEVKLPRAPEVQLKATKAEQAEGMEFGFKMPKMTMPKLGRAESPSRGKPGEAGAEVSGKLVTLPCLQPEVDGEAHVGVPSLTLPSVELDLPGALGLQGQVPAAKMGKGERAEGPEVAAGVREVGFRVPSVEIVTPQLPAVEIEEGRLEMIETKVKPSSKFSLPKFGLSGPKVAKAEAEGAGRATKLKVSKFAISLPKARVGAEAEAKGAGEAGLLPALDLSIPQLSLDAHLPSGKVEVAGADLKFKGPRFALPKFGVRGRDTEAAELVPGVAELEGKGWGWDGRVKMPKLKVSTAGQVVTEGHDAGLRMPPLGISLPQVELTGFGEAGTPGQQAQSTVPSAEGTAGYRVQVPQVTLSLPGAQVAGGELLVGEGVFKMPTVTVPQLELDVGLSREAQAGEAATGEGGLRLKLPTLGARARVGGEGAEEQPPGAERTFCLSLPDVELSPSGGNHAEYQVAEGEGEAGHKLKVRLPRFGLVRAKEGAEEGEKAKSPKLRLPRVGFSQSEMVTGEGSPSPEEEEEEEEEGSGEGASGRRGRVRVRLPRVGLAAPSKASRGQEGDAAPKSPVREKSPKFRFPRVSLSPKARSGSGDQEEGGLRVRLPSVGFSETGAPGPARMEGAQAAAV”, the “soluble on expression in E. coli” value is reported as “soluble”.

Take “MLILSFLCPAFLNAQIVTDERMFSFEEPQLPACITGVQSQLGISGAHYKDGKHSLEWTFEPNGRLELRKDLKFEKKDPTGKDLYLSAFIVWIYNEQPQDAAIEFEFLKDGRKCASFPFGINFKGWRAAWVCYERDMQGTPEEGMNELRIVAPDAKGRLFIDHLITATKVDARQQTADLQVPFVNAGTTNHWLVLYKHSLLKPDIELTPVSDKQRQEMKLLEKRFRDMIYTKGKVTEKEAETIRKKYDLYQITYKDGQVSGVPVFMVRASEAYERMIPDWDKDMLTKMGIEMRAYFDLMKRIAVAYNNSEAGSPIRKEMRRKFLAMYDHITDQGVAYGSCWGNIHHYGYSVRGLYPAYFLMKDVLREEGKLLEAERTLRWYAITNEVYPKPEGNGIDMDSFNTQTTGRIASILMMEDTPEKLQYLKSFSRWIDYGCRPAPGLAGSFKVDGGAFHHRNNYPAYAVGGLDGATNMIYLFSRTSLAVSELAHRTVKDVLLAMRFYCNKLNFPLSMSGRHPDGKGKLVPMHYAIMAIAGTPDGKGDFDKEMASAYLRLVSSDSSSAEQAPEYMPKVSNAQERKIAKRLVENGFRAEPDPQGNLSLGYGCVSVQRRENWSAVARGHSRYLWAAEHYLGHNLYGRYLAHGSLQILTAPPGQTVTPTTSGWQQEGFDWNRIPGVTSIHLPLDLLKANVLNVDTFSGMEEMLYSDEAFAGGLSQGKMNGNFGMKLHEHDKYNGTHRARKSFHFIDGMIVCLGSDIENTNMDYPTETTIFQLAVTDKAAHDYWKNNAGEGKVWMDHLGTGYYVPVAARFEKNFPQYSRMQDTGKETKGDWVSLIIDHGKAPKAGSYEYAILPGTDRKTMTAFAKKPAYSVLQQDRNAHILESPSDRITSYVLFETPQSLLPGGLLQRTDTSCLVMVRKESADKVLLTVAQPDLALYRGPSDEAFDKDGKRMERSIYSRPWIDNESGEIPVTVTLKGRWKVVETPYCKVVSEDKKQTVLRFLCKDGASYEVELEKLEHHHHHH”: the “soluble on expression in E. coli” value is “soluble”.

Take “MNRKGNMKRKTLKNIVEYDGIGLHKGEIIKMKLIPAKSGGIIFRMVNMPEGKNEILLDYRNIFDLTRGTNLKNEHGAMVFTIEHFLSALYVLGITDLVIELNGNELPICDGSAIKFLDLFQESGIVELDEYVEEIIVKEPIFLSKGDKHVIALPYPDGYKLTYAIRFEHTFLKSQLAEFEITEKNYRKEIASARTFGFDYEVEYLKQNNLALGGTLENAIVIKKDGVLNPDGLRFDDEFVRHKMLDIIGDLKILNRPIRAHIIAIKAGHLIDIEFAKILDNIKLEHHHHHH”: the “soluble on expression in E. coli” value is “soluble”.

Consider “MAHHHHHHMQFVVVDGSWPVVPCAIPRSQLLARSVKDTDHGEDGGGQSVLPGHALFTLCQEVLDTSASKTKAPPELATLDMTFLRDPQSGPLGALRLYTFKSVSHQFFAVEDLVSSGCLIVFTSHWASLTSAALLTGVRTTHKEKDDSAKSSRRRIENNTGSGTREVSASRASSLMGRGRSVLQKFSRAETYFTSVASATQRDFEMVNELLLSGTIRMNAHLESFLCSVCGNLPRRTMTTSCCGAVVCLLCAPTLSSSSVLREEVVCAVCGEMPLTNPEAHVSRDAEVMRLVRELRVLYHPQVSAAACRAMPGETQPPPTPFNVHHAGLPVPICDMNEPTGSVLGSVFMGPS”, for which the “soluble on expression in E. coli” value was “not soluble”.

Take “MVITKHFAIHGKSYRRKLIKYILNPEKTNNLALVSDYGMKNFLDFPSYEEMVQMYHENFISNDTLYDFRHDRMEENQRKIHAHHIIQSFSPEDHITPEQINRIGYETVKELTGGKFRFIVATHVDKDHLHNHIIINSVDSNSDKKLKWDYKVERNLRMISDRFSKIAGAKIIENRYSHQRYEVYRKTNHKYELKQRLYFLMEHSRDFEDFKKNAPLLHVEMDFRHKHATFFITDSTMKQVVRGKQLNRKQPYTEEFFKNYFAKREIESLMEFLLLKVENMDDLLQKAKLFGLTINPKQKHVSFQFAGVEVKETELDQKNLYDVEFFQDYFKNRKDWQAPETEDFVQLYQEEKLSKEKELPSDEKFWESYQEFKSNRDAVHEFEVELSLNQIEKVVDDGIYVKVKFGIRQEGLIFVPNMQLDMEEDKVKVFIRETSSYYVYHKDAAEKNCYMKGRTLIRQFSYENQTIPLRRKATVDMIKEKIAEVDALIELEVENQSYVTIKDELVHELAASELRINELQERMSTLNQVAEYLLASVESKQEMKLNLSKLNITENISANIVEKKLKSLGNQLELERGRYEKMVVRLDKFINRLNTGLSKGDGIDFQK”: the “soluble on expression in E. coli” value was “not soluble”.
